Source: publication PMC3612955

Target: actin (untreated, of the in vitro assays of Fig. 1) (UniProt P68135)

Mical, sequence (Q86BA1 whole entry): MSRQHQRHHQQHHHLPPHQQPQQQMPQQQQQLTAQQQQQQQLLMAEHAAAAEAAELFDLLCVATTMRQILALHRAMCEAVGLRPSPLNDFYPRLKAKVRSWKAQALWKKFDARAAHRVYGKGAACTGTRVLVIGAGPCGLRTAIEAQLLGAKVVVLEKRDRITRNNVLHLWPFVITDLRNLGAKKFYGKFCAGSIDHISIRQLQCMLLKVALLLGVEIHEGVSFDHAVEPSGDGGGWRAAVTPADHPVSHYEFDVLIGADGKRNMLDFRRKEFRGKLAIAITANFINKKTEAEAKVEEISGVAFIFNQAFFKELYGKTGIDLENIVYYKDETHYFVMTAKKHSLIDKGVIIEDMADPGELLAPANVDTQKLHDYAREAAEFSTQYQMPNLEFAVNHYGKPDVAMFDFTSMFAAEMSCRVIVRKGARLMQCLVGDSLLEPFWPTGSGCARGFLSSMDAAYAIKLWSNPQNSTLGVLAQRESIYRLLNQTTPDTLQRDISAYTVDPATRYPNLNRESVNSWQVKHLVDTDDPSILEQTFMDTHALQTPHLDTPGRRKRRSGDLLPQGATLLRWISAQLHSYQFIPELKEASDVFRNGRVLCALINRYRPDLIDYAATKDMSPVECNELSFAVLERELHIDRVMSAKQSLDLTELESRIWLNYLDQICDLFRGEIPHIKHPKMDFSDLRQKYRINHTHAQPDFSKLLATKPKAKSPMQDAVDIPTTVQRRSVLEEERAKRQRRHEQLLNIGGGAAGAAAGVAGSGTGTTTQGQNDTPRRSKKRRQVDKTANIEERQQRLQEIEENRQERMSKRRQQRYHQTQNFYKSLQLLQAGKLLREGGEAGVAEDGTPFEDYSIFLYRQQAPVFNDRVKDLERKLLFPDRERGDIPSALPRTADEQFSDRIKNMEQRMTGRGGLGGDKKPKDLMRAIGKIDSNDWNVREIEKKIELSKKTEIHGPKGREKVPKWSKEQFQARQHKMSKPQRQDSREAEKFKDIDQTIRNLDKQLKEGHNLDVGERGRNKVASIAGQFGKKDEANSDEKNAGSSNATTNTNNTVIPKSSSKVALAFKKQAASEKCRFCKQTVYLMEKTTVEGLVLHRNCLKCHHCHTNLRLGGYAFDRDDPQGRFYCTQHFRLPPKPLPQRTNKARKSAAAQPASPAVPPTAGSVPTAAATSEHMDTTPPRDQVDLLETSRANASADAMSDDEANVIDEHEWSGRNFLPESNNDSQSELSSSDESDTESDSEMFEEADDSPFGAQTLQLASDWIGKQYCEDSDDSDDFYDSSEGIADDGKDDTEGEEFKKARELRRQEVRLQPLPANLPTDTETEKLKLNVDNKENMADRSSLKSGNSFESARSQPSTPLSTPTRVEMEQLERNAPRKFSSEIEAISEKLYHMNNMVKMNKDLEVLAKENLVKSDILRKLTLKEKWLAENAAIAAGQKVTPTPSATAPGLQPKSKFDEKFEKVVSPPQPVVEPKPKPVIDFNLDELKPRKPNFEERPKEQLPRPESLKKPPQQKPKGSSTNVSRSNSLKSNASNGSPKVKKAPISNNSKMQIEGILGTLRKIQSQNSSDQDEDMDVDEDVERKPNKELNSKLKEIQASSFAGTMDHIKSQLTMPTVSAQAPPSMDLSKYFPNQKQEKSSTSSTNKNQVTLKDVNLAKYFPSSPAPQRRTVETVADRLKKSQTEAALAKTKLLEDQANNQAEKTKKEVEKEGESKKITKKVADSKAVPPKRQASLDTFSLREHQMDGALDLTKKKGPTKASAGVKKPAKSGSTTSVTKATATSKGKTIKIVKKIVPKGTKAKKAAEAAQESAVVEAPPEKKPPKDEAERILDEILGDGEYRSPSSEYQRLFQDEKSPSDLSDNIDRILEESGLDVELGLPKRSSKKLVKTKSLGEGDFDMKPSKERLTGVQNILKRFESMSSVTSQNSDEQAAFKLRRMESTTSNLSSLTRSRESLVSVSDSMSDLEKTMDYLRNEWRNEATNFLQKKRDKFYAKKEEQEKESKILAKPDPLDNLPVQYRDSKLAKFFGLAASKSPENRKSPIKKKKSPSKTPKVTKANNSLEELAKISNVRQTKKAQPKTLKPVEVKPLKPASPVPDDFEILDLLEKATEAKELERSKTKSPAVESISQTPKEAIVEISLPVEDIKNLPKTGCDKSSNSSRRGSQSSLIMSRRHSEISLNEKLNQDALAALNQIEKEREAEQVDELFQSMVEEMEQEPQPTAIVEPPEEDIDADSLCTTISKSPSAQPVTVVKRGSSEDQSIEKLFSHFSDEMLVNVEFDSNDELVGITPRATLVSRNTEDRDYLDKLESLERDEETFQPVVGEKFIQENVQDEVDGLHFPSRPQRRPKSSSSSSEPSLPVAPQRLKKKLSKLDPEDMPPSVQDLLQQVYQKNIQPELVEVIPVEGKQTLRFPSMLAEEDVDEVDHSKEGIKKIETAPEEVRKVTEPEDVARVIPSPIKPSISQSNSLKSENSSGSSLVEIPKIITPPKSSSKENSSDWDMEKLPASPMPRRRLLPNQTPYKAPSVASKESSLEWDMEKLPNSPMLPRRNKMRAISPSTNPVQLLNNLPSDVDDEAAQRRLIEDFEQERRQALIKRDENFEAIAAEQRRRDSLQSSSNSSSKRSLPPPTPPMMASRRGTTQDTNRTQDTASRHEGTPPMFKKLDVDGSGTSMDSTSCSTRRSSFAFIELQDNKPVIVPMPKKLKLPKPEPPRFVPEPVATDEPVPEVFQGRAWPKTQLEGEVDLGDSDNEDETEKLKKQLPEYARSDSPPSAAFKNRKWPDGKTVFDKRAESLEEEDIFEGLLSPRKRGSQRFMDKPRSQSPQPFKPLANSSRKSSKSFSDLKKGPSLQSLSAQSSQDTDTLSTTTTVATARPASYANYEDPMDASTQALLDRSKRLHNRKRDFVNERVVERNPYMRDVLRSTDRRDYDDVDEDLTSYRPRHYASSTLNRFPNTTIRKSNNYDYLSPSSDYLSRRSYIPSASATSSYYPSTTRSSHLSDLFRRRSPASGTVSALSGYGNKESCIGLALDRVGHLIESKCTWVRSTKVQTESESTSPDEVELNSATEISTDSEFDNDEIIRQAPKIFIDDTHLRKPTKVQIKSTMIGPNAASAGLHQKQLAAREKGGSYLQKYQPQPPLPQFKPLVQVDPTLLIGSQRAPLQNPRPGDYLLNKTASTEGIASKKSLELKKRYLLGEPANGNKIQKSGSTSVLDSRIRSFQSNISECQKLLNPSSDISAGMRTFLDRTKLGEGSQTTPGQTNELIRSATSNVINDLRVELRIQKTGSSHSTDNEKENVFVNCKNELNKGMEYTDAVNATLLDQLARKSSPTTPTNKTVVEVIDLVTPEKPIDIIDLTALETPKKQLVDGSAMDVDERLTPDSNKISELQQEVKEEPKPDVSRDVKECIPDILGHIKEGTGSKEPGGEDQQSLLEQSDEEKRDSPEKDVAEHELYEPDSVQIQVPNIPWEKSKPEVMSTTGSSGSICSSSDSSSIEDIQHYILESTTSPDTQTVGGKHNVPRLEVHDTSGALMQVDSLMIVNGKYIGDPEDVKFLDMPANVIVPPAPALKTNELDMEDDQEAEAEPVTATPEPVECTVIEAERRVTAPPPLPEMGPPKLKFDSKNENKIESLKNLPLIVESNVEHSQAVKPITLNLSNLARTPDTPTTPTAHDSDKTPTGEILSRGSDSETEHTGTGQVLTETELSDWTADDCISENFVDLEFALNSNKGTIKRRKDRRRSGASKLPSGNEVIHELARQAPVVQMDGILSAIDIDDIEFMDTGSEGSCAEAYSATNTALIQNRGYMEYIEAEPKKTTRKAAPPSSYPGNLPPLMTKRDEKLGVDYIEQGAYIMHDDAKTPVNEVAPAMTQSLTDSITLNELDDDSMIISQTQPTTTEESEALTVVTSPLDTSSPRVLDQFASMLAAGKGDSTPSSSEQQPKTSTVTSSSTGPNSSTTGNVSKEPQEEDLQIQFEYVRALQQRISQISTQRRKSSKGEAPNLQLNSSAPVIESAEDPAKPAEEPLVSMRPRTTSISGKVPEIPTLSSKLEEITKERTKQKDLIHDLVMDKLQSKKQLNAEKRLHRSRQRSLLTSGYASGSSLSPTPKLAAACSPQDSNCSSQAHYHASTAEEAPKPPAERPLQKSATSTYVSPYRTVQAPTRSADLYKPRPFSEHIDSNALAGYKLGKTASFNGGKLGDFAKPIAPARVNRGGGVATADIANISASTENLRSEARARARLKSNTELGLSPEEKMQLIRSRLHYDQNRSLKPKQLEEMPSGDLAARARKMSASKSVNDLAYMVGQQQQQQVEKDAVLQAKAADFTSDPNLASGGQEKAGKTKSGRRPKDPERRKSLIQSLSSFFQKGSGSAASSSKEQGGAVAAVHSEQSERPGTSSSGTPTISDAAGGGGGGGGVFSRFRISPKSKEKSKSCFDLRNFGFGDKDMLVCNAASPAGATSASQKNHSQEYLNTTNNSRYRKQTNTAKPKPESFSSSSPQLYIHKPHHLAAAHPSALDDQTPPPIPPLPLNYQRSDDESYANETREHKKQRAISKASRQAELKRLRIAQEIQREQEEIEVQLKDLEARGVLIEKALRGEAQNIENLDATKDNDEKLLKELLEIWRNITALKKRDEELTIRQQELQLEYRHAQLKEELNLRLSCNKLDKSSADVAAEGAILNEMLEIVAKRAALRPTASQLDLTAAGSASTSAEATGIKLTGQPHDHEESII

Mical enzymatic activity (conversion of NADPH to NADP+) with F-actin: > 100 fold
Substance: Mical (from UniProt Q86BA1 1-4723) (enzyme)
